Test results: patent US20120225464A1, “Specific Arabinose Transporter of the Plant Arabidopsis Thaliana for the Construction of Pentose-Fermenting Yeasts” (priority 2011, published 2012)

B1: Stp2: transporter Stp2 from Arabidopsis thaliana, a protein of 498 amino acids (SEQ ID NO. 1) (protein, listed as Arabidopsis thaliana)
chain: MAVGSMNVEEGTKAFPAKLTGQVFLCCVIAAVGGLMFGYDIGISGGVTSMDTFLLDFFPHVYEKKHRVHENNYCKFDDQLLQLFTSSLYLAGIFASFISSYVSRAFGRKPTIMLASIFFLVGAILNLSAQELGMLIGGRILLGFGIGFGNQTVPLFISEIAPARYRGGLNVMFQFLITIGILAASYVNYLTSTLKNGWRYSLGGAAVPALILLIGSFFIHETPASLIERGKDEKGKQVLRKIRGIEDIELEFNEIKYATEVATKVKSPFKELFTKSENRPPLVCGTLLQFFQQFTGINVVMFYAPVLFQTMGSGDNASLISTVVTNGVNAIATVISLLVVDFAGRRCLLMEGALQMTATQMTIGGILLAHLKLVGPITGHAVPLIVLILICVYVSGFAWSWGPLGWLVPSEIYPLEVRNAGYFCAVAMNMVCTFIIGQFFLSALCRFRSLLFFFFGIMNIIMGLFVVFFLPETKGVPIEEMAEKRWKTHPRWKKYFKD
B2: Gal2: S. cerevisiae galactose permease Gal2, known to also transport L-arabinose (protein, UniProt P13181 1-574, looked up)
Galactose transporter: MAVEENNMPVVSQQPQAGEDVISSLSKDSHLSAQSQKYSNDELKAGESGSEGSQSVPIEIPKKPMSEYVTVSLLCLCVAFGGFMFGWDTGTISGFVVQTDFLRRFGMKHKDGTHYLSNVRTGLIVAIFNIGCAFGGIILSKGGDMYGRKKGLSIVVSVYIVGIIIQIASINKWYQYFIGRIISGLGVGGIAVLCPMLISEIAPKHLRGTLVSCYQLMITAGIFLGYCTNYGTKSYSNSVQWRVPLGLCFAWSLFMIGALTLVPESPRYLCEVNKVEDAKRSIAKSNKVSPEDPAVQAELDLIMAGIEAEKLAGNASWGELFSTKTKVFQRLLMGVFVQMFQQLTGNNYFFYYGTVIFKSVGLDDSFETSIVIGVVNFASTFFSLWTVENLGHRKCLLLGAATMMACMVIYASVGVTRLYPHGKSQPSSKGAGNCMIVFTCFYIFCYATTWAPVAWVITAESFPLRVKSKCMALASASNWVWGFLIAFFTPFITSAINFYYGYVFMGCLVAMFFYVFFFVPETKGLSLEEIQELWEEGVLPWKSEGWIPSSRRGNNYDLEDLQHDDKPWYKAMLE

Legend:
Type in all cases: cell-based, S. cerevisiae
Gal2 = target: T1, Gal2 (Saccharomyces cerevisiae, UniProt P13181); experiment: Inhibition of Gal2-mediated L-arabinose uptake by added sugar; settings: addition of 10 mM of the sugar
T1 construct: expressed in transfected cells; host or cells: S. cerevisiae strain MKY06 (all hexose transporters incl. gal2 deleted)
T1 sequence (P13181 1-574): B2 Galactose transporter
Protocol: (§1) The initial rates of sugar uptake were measured as follows: a 50-0 aliquot of a sugar solution containing (1-^3H)-labeled L-arabinose, (U-^14C) labeled O-glucose (American Radiolabeled Chemicals Inc.) or (1-^14C) labeled D-galactose (Amersham) was incubated at 30° C. and was mixed with 100 μl of yeast suspensions having the same temperature, resulting in final sugar concentrations of 10 mM L-arabinose, D-glucose and D-galactose. For determination of L-arabinose uptake kinetics 0.1, 1, 5, 10, and 50 mM L-arabinose were used. After different time intervals 10 ml of ice-cold 100 mM potassium phosphate buffer at pH 6.5 with 500 mM. D-glucose was added, and the suspension was immediately filtrated using Durapore® membrane filters (0.22 μm pore size, Millipore). The filter was washed two times with 10 ml of cold potassium phosphate buffer with 500 mM D-glucose. […] Rotiszint® eco plus (Roth) and the radioactivity measured in a scintillation counter. Uptake of radioactivity was nearly linear in time intervals up to 2 minutes. […] Dry weight was determined by filtering 10 ml of the culture through a pre-weighted nitrocellulose filter (0.45 μm pore size; Roth, Germany). […] KM and vmax values were calculated using the program GraphPad Prism 5.0.
(§2) For L-arabinose, uptake kinetics were determined by measuring L-arabinose uptake at various concentrations between 0.1 and 50 mM during 2-minute time intervals. […]

Stp2 = target: T2, Stp2 (Arabidopsis thaliana, UniProt Q9LNV3); experiment: Inhibition of Stp2-mediated L-arabinose uptake by added sugar; settings: addition of 10 mM of the sugar
T2 construct: The open reading frame (ORF) of AtStp2 was amplified and cloned behind the shortened strong HXT7 promoter; expressed in transfected cells; host or cells: S. cerevisiae strain MKY06 (all hexose transporters deleted), plasmid pTHStp2
T2 sequence (Q9LNV3 1-498): B1 chain
Protocol: as §1, §2

strain MKY06-3P = experiment: Sugar consumption / fermentation analysis by HPLC in SC medium under aerobic conditions; settings: transporter overexpressed
Protocol: (§3) Fermentation analysis of the MKY06-3P containing the plasmids p426-opt-AraT-S (A) or pTHSTp2 (B) in SC medium with 2% glucose under aerobic conditions. As controls the strain MKY06-3P was used containing the plasmids pHL125^re (positive) or p426HXT7-6HIS (negative). The strains with the various plasmids were adducted in SC medium with 2% glucose and inoculated with an OD600nm=1 in 50 ml SC medium. The incubation took place in 300 ml shaking flasks under aerobic conditions at 30° C. Samples were taken several times during the 120 hours to determine the sugar concentration via HPLC analysis.
as §3, with “arabinose” for “glucose”, “analysis. […]” for “analysis.”
The samples taken in the tests were centrifuged for 10 min at 3000 R/min, in order to pellet the yeast cells. […] The sugar concentrations were measured by means of BioLC (Dionex). […]

[1] = system: L-arabinose uptake, strain MKY06; experiment: L-arabinose uptake kinetics with radioactively labeled sugar in strain MKY06 overexpressing the transporter; settings: L-arabinose as the substrate; 0.1-50 mM, 2-minute intervals
Protocol: The initial rates of sugar uptake were measured as follows: a 50-0 aliquot of a sugar solution containing (1-^3H)-labeled L-arabinose, (U-^14C) labeled O-glucose (American Radiolabeled Chemicals Inc.) or (1-^14C) labeled D-galactose (Amersham) was incubated at 30° C. and was mixed with 100 μl of yeast suspensions having the same temperature, resulting in final sugar concentrations of 10 mM L-arabinose, D-glucose and D-galactose. For determination of L-arabinose uptake kinetics 0.1, 1, 5, 10, and 50 mM L-arabinose were used. After different time intervals 10 ml of ice-cold 100 mM potassium phosphate buffer at pH 6.5 with 500 mM. D-glucose was added, and the suspension was immediately filtrated using Durapore® membrane filters (0.22 μm pore size, Millipore). The filter was washed two times with 10 ml of cold potassium phosphate buffer with 500 mM D-glucose. Filters were transferred to 5 ml scintillation vials containing 4.5 ml. Rotiszint® eco plus (Roth) and the radioactivity measured in a scintillation counter. Uptake of radioactivity was nearly linear in time intervals up to 2 minutes. The results shown are average values for two to three independent experiments. Dry weight was determined by filtering 10 ml of the culture through a pre-weighted nitrocellulose filter (0.45 μm pore size; Roth, Germany). The filters were washed with demineralized water, dried in a microwave oven for 20 minutes at 140 W, and weighted again. KM and vmax values were calculated using the program GraphPad Prism 5.0.
For L-arabinose, uptake kinetics were determined by measuring L-arabinose uptake at various concentrations between 0.1 and 50 mM during 2-minute time intervals. While Gal2 turned out to transport L-arabinose with low affinity and high capacity, Stp2 mediated uptake of L-arabinose with low capacity but high affinity (Table 1).

[2] = system: D-glucose uptake, strain MKY06; experiment: Initial rate of D-glucose uptake with radioactively labeled sugar in strain MKY06 overexpressing the transporter; settings: 10 mM D-glucose, 1 minute; empty-vector background subtracted
Protocol: Initial rates of sugar uptake of strain MKY06 expressing Stp2 (AtStp2) or Gal2 (ScGal2). Cells were grown on D-galactose or maltose (empty vector), harvested and incubated with the radioactively labeled sugars: 10 mM L-arabinose (A), 10 mM D-galactose (B) and 10 mM D-glucose (C) for 2 minutes (L-arabinose) or 1 minute (D-galactose, D-glucose). The background values determined with cells containing the empty vector were subtracted.
as §1, with “used.” for “used. After different time intervals 10 ml of ice-cold 100 mM potassium phosphate buffer at pH 6.5 with 500 mM. D-glucose was added, and the suspension was immediately filtrated using Durapore® membrane filters (0.22 μm pore size, Millipore). The filter was washed two times with 10 ml of cold potassium phosphate buffer with 500 mM D-glucose.”, “5.0. […]” for “5.0.”

Row | Molecule | Inhibition of L-arabinose uptake (Gal2) (Gal2) | Inhibition of L-arabinose uptake (Stp2) (Stp2) | Glucose transport in the strain MKY06-3P (strain MKY06-3P) | Km [1] | vmax [1] | D-glucose uptake rate [2]
1 | O=C[C@H](O)[C@@H](O)[C@@H](O)[C@H](O)CO [D-galactose] | nearly completely inhibited | nearly completely inhibited | – | – | – | –
2 | O=C[C@H](O)[C@@H](O)[C@H](O)[C@H](O)CO [D-glucose] | nearly completely inhibited | nearly completely inhibited | – | – | – | –
3 | AraT | – | – | small amounts of glucose | – | – | –
4 | B1 | – | – | – | 4.5 mM | 0.6 +/− 0.08 nmol/min/mg DM | < 0.01 nmol/min/mg DM
5 | B2 | – | – | – | 57 mM | 2.2 +/− 0.26 nmol/min/mg DM | 4.7 nmol/min/mg DM
